Positions count from the first letter of the chain named.
B1: 588F41 (antibody, V domains shown)
VH: EVQLQQSGPELVKPGASVKMSCKASGYTFTSYVMHWVKQKPGQGLEWLGYINPYNDGTKYNEKFKGMATLTSDKSSSTAYMELISLTSEDSAVYYCAREASYGNPFAYWGQGTLVTVSA
VL: DIVMTQSPASLSASVGETVTITCRTSENIYSYLAWFQQKQGNSPQLLVYNTKTLAEGVPSRFSGSGSGTQFSLKINSLQPEDFGNYYCQHHYDTPWTFGGGTKLEIKR
notes: Purified mouse IgG from a hybridoma; also called 588F41-HC; 588F41-LC
B2: 588F42 (antibody, V domains shown)
VH: B1 VH with M67K
VL: DIVMTQSPASLSASVGETVTITCRTSENIYSYLAWFQQKQGNSPQLLVYNTKTLAEGVPSRFSGSGSGTQFSLKINSLQPEDFGNYYCQHHYDTPWTFGGGTKLEIK
notes: Purified mouse IgG from a hybridoma; also called 588F42-HC; 588F42-LC
B3: 588F7 (antibody, V domains shown)
VH: QVQLQQPGSVLVRPGASVKLSCKASGYTFTNSWILWAKRRPGQGLEWIGEIHPNSGNTNYNEKFKGQATLTVDTSSTTAYVDLSRLTSEDSAVYYCARYEGHWGQGTLVTVSA
VL: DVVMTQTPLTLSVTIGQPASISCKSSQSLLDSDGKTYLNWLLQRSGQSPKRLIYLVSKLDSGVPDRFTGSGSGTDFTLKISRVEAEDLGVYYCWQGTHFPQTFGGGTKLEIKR
notes: Purified mouse IgG from a hybridoma; also called 588F7-HC; 588F7-LC
B4: 588E10 (antibody, V domains shown)
VH: EVQLQQSGPKLVGPGESVKISCKGSGYTFTDYGMHWVKQSHAKRLEWIGVITIYDGHTNYNQNFKGKAALTVDKSSNTAYLELARMTSEDSAIYYCARGDYDLFWYLDVWGAGTTLTVSS
VL: DVVMTQTPLSLTVSLGDQASISCRSSQNIKHSDGNTYLEWYLQKPGQSPKLLIYKVSNRFSGVPDRFSGSGSGTDFTLKISRVEAEDLGVYFCFQGSHVPLTFGAGTKLELKR
notes: Purified mouse IgG from a hybridoma; also called 588E10-HC; 588E10-LC
B5: 588E14 (antibody, V domains shown)
VH: B4 VH with K10E, T28A, T115S, L116V
VL: B4 VL with V2I
notes: Purified mouse IgG from a hybridoma; also called 588E14-HC; 588E14-LC
B6: 588E22 (antibody, V domains shown)
VH: B4 VH with E1D, Q6E, K10E, L81P, L116V
VL: B4 VL
notes: Purified mouse IgG from a hybridoma; also called 588E22-HC; 588E22-LC

How the values were obtained:
[1] = biological target: T1, human Her3 receptor on cells (T47D, MCF7) (human, UniProt P21860 20-1342); experiment: cell-based or functional assay
[2] = biological target: T1, human Her3 receptor on cells (T47D, …); experiment: cell-based or functional assay; remark: listed apart in the source
[3] = biological target: T1, human Her3 receptor on cells (T47D, …); experiment: cell-based or functional assay; remark: listed apart in the source
[4] = biological target: T1, human Her3 receptor on cells (T47D, …); experiment: cell-based or functional assay; remark: listed apart in the source
[5] = biological target: T2, EGFR on CHO cells (CHO-EGFR) (UniProt P00533 25-1210, limits assumed); experiment: FACS on CHO-EGFR cells, purified IgG, R-PE anti-mouse IgG
T2 construct: whole, on cells
Procedure: (§1) CHO-Her2, CHO-Her4, CHO-EGFR cells were harvested and resuspended in PBS, 2% FBS at a concentration of approximately 1×10⁶/ml. Cells were stained with purified IgGs at 4° C. for 40 min. Cells were washed with 4 mL PBS, 2% FBS, then centrifuged at 1200 rpm for 10 minutes. Supernatant was removed. Cells were stained with R-PE conjugated anti-mouse IgG at 4° C. for 30 min. Cells were washed with 4 mL PBS, 2% FBS, then centrifuged at 1200 rpm for 10 minutes. Supernatant was removed and cell pellets were fixed in 1% formaldehyde. Cells were analyzed on a FACS Calibur (BD Biosciences) by collecting 20,000 events from gate 1.

[6] = biological target: T3, Her2 on CHO cells (CHO-Her2) (UniProt P04626 23-1255, limits assumed); experiment: FACS on CHO-Her2 cells, purified IgG, R-PE anti-mouse IgG
T3 construct: whole, on cells
Procedure: as §1

[7] = biological target: T4, Her4 on CHO cells (CHO-Her4) (UniProt Q15303 26-1308, limits assumed); experiment: FACS on CHO-Her4 cells, purified IgG, R-PE anti-mouse IgG
T4 construct: whole, on cells
Procedure: as §1

[8] = biological target: T5, Recombinant Human Her3 (Her3/ErbB3 extracellular domain) (human, UniProt P21860 20-643); experiment: SPR (BIAcore), Mab captured by anti-IgG Fc on CM5 chip, recombinant human Her3 as analyte, 25 °C
T5 construct: Analyte of the BIAcore assay; also called Her3 ECD; human Her3/ErbB3 extracellular domain
Procedure: All experiments were performed at 25° C. at a flow rate of 40 μl/min. To prepare a BIAcore assay, an anti-human IgG-Fc antibody (50 μg/ml each in acetate buffer, pH 5.0) was immobilized onto a carboxymethyl dextran sensorchip (CM5) using amine coupling procedures as described by the manufacturer. 10000 resonance units (RU) of anti-mouse IgG Fc antibodies were linked respectively onto Flowcells (FC) 1 and 2. Purified Mabs to be tested were diluted at a concentration of 5 μg/ml in 0.5% P20, HBS-EP buffer and injected on FC2 to reach 500 to 1000 RU. FC1 was used as the reference cell. Specific signals correspond to the difference of signals obtained on FC2 versus FC1. The analyte (Recombinant Human Her3, apparent molecular weight 97 kDa) was injected during 90 sec at 5 different concentrations (100, 50, 25, 12.5 and 6.25 nM) in 0.5% P20, HBS-EP buffer. These concentrations were prepared from stock solution in 0.5% P20, HBS-EP. The dissociation phase of the analyte was monitored over a 10 minutes period. Running buffer was also injected under the same conditions as a double reference. After each cycle (antibody+Her3 injection), both Flowcells were regenerated by injecting 20 to 45 μl of Glycine-HCl buffer pH 1.5. This regeneration is sufficient to eliminate all Mabs and Mabs/Her3 complexes captured on the sensorchip. Table 1 listed binding KD for Her3 binding monoclonal antibodies.

Her3/Avi/His10 receptor [9] = biological target: T6, Her3/Avi/His10 receptor (Homo sapiens (Human), UniProt P21860 20-643, limits assumed); experiment: AlphaScreen competition; antibody titrated against 10 nM biotinylated NRG-1 beta and 10 nM Her3/Avi/His10; n = 3
T6 construct: Soluble tagged receptor of the AlphaScreen assay; The antibodies are called anti-hHer3 there; not shown: Avi tag; His10 tag (ten histidines by its name)
Procedure: (§2) SDI or Genovac purified anti-hHer3 Mabs were serially diluted two-fold into an assay buffer made from 25 mM Hepes, 100 mM NaCl, 0.5% BSA and 0.05% Tween20 in an opaque/white, half-well area plate (Costar). Mouse IgG1 antibody was used as a negative control (Southern Biotech; cat #010201). Biotinylated NRG-1 beta ligand and Her3/Avi/His₁₀ receptor were added sequentially at 10 nM concentration to the assay plate containing serially diluted antibodies. This mixture of receptor, ligand and the antibodies was incubated at room temperature with gentle shaking for 90 minutes. AlphaScreen Streptavidin Donor beads and His-Nickel chelate Acceptor beads were added into the assay at a final concentration of 20 μg/ml each. The light sensitive beads were handled under chromagreen filtered light. The assay plates were covered with foil and incubated at room temperature with gentle shaking for 1 hour. The plates were read in PE EnVision plate reader equipped with an Alpha module (dedicated laser for excitation and designed to measure the signal above the well). Table 7 listed IC₅₀ values in ligand blocking that were estimated using four parameter curve fitting with concentration titration graphs (FIGS. 7 A&B).

Her3/Avi/His10 receptor [10] = biological target: T6, Her3/Avi/His10 receptor; experiment: AlphaScreen ligand blocking: antibody titrated against 10 nM biotinylated NRG-1 beta and 10 nM Her3/Avi/His10, % signal
Procedure: as §2

T4 sequence (Q15303 26-1308 limits assumed): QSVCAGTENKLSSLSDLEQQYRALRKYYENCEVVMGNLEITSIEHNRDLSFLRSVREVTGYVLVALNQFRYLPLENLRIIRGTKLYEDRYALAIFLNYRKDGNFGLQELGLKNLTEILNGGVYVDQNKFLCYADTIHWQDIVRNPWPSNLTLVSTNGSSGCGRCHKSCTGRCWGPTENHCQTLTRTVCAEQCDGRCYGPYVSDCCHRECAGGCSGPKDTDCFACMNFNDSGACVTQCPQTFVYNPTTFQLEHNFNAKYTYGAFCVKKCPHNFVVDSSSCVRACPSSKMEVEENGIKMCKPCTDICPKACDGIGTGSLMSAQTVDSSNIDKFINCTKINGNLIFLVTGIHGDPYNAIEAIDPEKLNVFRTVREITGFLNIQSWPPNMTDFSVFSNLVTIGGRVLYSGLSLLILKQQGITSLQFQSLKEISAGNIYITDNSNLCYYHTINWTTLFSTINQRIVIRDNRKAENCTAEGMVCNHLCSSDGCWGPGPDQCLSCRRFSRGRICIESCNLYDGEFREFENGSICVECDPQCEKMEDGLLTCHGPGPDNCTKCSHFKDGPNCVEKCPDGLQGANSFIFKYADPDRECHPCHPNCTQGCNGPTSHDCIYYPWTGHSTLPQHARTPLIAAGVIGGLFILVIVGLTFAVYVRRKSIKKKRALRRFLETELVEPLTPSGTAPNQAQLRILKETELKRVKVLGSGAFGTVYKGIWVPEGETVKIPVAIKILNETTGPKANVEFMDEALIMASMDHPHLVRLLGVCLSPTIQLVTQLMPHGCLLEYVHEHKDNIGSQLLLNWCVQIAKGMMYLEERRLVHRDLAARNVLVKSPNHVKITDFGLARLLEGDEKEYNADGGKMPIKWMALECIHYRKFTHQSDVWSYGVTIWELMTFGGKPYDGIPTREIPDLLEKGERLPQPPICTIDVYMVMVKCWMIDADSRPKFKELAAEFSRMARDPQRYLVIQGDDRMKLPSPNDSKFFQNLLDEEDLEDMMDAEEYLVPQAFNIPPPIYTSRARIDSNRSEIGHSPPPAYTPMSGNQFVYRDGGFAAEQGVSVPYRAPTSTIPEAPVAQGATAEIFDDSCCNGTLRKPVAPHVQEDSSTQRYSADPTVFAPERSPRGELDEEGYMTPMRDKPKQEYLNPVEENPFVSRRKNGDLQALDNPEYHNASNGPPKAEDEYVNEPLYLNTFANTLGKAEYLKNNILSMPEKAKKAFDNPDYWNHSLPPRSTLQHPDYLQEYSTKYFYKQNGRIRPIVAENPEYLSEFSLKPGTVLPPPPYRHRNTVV
T1 sequence (P21860 20-1342 limits assumed, stated change not applied): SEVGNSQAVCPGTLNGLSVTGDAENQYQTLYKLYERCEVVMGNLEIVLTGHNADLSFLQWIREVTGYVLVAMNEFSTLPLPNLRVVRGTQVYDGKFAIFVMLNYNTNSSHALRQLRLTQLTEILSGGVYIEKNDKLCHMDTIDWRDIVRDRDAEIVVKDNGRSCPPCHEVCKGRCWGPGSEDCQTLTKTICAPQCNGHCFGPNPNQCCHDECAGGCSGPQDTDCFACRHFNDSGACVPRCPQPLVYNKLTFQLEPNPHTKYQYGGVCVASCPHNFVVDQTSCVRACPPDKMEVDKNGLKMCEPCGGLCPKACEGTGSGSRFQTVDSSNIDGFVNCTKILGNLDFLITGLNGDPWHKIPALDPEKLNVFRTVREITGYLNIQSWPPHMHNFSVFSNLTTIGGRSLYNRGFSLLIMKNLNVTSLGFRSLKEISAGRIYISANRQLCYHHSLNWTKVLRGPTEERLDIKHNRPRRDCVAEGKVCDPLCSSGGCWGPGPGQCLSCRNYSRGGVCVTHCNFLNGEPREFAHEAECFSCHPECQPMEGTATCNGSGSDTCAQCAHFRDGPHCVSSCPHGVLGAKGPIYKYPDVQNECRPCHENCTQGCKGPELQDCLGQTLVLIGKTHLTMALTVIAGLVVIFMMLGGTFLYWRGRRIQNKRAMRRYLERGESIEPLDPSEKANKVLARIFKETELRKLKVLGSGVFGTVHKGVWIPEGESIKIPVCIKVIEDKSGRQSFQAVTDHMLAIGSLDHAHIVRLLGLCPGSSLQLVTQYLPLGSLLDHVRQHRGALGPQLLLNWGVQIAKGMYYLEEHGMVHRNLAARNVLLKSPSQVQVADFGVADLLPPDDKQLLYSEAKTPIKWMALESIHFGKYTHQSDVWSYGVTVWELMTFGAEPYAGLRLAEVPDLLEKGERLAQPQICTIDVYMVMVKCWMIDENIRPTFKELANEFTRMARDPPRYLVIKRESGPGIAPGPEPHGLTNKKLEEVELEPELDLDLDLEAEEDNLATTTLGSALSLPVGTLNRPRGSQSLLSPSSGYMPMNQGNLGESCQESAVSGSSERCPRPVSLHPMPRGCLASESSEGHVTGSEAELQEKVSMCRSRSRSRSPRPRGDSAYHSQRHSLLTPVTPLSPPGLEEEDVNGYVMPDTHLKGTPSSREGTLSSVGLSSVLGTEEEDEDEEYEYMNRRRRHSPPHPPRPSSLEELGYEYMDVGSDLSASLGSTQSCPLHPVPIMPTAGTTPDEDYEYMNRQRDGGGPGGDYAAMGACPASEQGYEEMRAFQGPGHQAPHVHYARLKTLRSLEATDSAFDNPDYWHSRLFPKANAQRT
T5 sequence (P21860 20-643 limits assumed): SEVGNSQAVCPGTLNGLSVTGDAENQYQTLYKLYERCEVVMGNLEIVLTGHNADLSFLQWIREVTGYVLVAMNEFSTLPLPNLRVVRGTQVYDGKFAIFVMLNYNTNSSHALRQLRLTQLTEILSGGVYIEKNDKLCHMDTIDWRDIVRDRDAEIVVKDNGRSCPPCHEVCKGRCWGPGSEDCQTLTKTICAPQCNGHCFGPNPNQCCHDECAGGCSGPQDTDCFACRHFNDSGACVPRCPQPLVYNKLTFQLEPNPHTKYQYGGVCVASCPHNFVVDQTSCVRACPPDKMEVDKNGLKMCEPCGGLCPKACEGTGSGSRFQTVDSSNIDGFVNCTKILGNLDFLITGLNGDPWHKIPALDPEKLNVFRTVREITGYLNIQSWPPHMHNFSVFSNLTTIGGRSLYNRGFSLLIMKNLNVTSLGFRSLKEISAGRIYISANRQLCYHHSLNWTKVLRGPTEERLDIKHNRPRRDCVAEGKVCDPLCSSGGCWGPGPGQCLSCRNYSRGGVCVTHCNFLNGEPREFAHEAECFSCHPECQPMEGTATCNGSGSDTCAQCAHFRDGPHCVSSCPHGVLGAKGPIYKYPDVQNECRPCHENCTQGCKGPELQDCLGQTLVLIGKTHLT
T6 sequence (P21860 20-643 limits assumed): as above

Row | Binder | % Receptor Internalization (T47D cells, FACS) [1] [%] | IC50 of inhibition of pHer3 (MCF7 cells stimulated with rhNRG1-β1, ELISA) [2] | IC50 of pAKT inhibition (MCF7 cells stimulated with rhNRG1-β1, ELISA) [3] | IC50 of pERK inhibition (MCF7 cells stimulated with rhNRG1-β1, MSD) [4] [nM] | binding result [5] | binding result [6] | binding result [7] | Kd [8] [nM] | IC50 (Her3/Avi/His10 receptor [9]) [nM] | IC50 (Her3/Avi/His10 receptor [10]) [nM]
1 | B1 | 59 | 0.66 nM | 2.05 nM | 4.91 | no binding | no binding | no binding | 3.2 | 4.1 | 1.17
2 | B2 | 57 | 1.04 nM | 1.36 nM | 1.8 | no binding | no binding | no binding | 3.8 | 4.6 | 3.03
3 | B3 |  |  |  |  | no binding | no binding | no binding |  |  | 
4 | B4 | 51 | 90 pM | 0.14 nM | 1.72 | no binding | no binding | no binding | 3.31 | 4.9 | 2.92
5 | B5 | 52 | 70 pM |  | 1.82 | no binding | no binding | no binding | 3.04 | 2.3 | 1.44
6 | B6 | 53 | 90 pM | 90 pM | 1.44 | no binding | no binding | no binding | 2.78 | 3.6 | 2.08
